Experimental data as given in patent US20210163606A1 (ATYR PHARMA, published 2021).

What was measured:
[1] = target: T1, mouse NRP2 I383V on transfected Expi293 cells (Mouse, UniProt O35375 21-931); experiment: flow cytometry, aNRP2-10v10 at 10 nM on transfected Expi293 cells gated on live, single, NRP2 expressing cells [panel 11B]
T1 construct: whole, on cells; also called 1383V
T1 sequence (looked up): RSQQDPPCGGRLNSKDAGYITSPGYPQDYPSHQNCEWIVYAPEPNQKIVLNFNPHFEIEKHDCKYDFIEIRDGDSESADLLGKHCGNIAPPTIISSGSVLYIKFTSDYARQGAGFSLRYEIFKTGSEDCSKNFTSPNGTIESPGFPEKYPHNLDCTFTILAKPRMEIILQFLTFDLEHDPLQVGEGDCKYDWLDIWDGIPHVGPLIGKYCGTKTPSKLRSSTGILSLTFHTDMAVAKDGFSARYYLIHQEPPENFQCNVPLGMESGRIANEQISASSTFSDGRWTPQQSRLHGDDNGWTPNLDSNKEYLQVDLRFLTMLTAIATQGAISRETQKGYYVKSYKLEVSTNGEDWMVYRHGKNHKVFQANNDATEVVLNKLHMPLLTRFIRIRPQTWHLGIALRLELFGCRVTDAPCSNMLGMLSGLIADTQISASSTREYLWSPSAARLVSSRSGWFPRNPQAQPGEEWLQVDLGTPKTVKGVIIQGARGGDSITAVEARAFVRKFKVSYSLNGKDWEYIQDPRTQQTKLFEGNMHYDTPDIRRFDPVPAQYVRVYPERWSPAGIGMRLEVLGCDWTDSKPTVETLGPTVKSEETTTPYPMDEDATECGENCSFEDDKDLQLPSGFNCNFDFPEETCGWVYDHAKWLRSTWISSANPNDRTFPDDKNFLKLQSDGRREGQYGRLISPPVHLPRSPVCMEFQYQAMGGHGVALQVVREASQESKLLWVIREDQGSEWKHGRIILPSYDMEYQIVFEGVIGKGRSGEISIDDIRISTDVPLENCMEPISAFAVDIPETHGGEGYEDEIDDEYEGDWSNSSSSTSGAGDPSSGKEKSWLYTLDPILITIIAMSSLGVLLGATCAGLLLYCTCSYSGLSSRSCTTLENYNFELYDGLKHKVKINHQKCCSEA
Procedure: FIGS. 11A-11B show the measurement of antibody binding to Expi293 cells over-expressing NRP2. […] Gating for NRP2 over-expressing cells is shown.
Human NRP2a (version 2; see Table N1) and mouse NRP2v2 cDNAs were obtained from Origene. […] Human and mouse NRP2, expression vectors, along with expression vectors encoding all 6 mutants were transfected into Expi293 cells at 1 million cells/mL, by standard techniques. Approximately 40 hours post transfection cells were co-stained with aNRP2-10v10, and a species agnostic anti-NRP2 a1 specific binding antibody.

[2] = target: T2, cynomolgus monkey NRP2 on transfected Expi293 cells (cynomolgus monkey); experiment: flow cytometry on Cyno NRP2-transfected Expi293 cells
T2 construct: whole, on cells; Plasmid bought from Origene; transient transfection; also called Cyno NRP2
Procedure: Binding of a-NRP2 to cynomolgus monkey NRP2-transfected Expi293 cells. Cynomolgus monkey (cyno) NRP2-transfected Expi293 cells were collected by centrifugation at 300 g for 5 minutes, and washed twice by DPBS (with calcium and magnesium, ThermoFisher Cat #14040133).
Washed cells were added to a 96-well V-bottom plate (ThermoFisher Cat #1424572) at 100,000 cells/well in 50 μL of DPBS added with Zombie Violet viability stain (Biolegend Cat #423114, diluted at 1:500). From this step on, cells were protected from light. Cells were kept at room temperature for 10 min and pelleted down at 300 g for 5 minutes at 4° C. Supernatants containing Zombie Violet were discarded, and without washing, 30 uL of antibodies diluted in the flow wash buffer (FWB, DPBS plus 2% FBS and 0.1% sodium azide to inhibit receptor internalization) were added to the cells. For a-NRP2 staining on Cyno NRP2-transfected Expi293 cells, in-house human anti-NRP2 antibodies were tested at final concentrations of 0.006-100 nM at 4-fold dilutions. For each test, NRP2 over-expression on the cell surface was validated by a-NRP2 staining (10 μg/mL R&D #AF567 a-NRP2) in separate wells. Binding was allowed to proceed on ice for 40-60 minutes. Cells were then pelleted at 300 g for 5 minutes at 4° C., supernatants removed, and cells washed twice by adding 150 μL of FWB and centrifuging the cells again in the same conditions. To detect a-NRP2 binding on the cell surface, Cy3-conjugated goat anti-human IgG Fc or AF647-conjugated donkey anti-goat IgG (Jackson ImmunoResearch Cat #109165098 & 705605147) was added to the cells at a final concentration of 3 μg/mL in 30 μL of FWB. After 30-40 minutes of incubation on ice, cells were pelleted at 300 g for 5 minutes at 4° C. and supernatants removed, and the cells were washed twice as described previously. […] Cells were then analyzed on FlowJo analysis software by excluding dead cells and gating singlets.
The EC₅₀ of three anti-NRP2 antibodies, each against a distinct domain of NRP2, were measured for binding to Cyno NRP2-transfected Expi293 cells (see Table E2 and FIG. 4).

- binding result [1]: no binding (tested: 10 nM)
- EC50 [2]: 2.9 nM
B1: aNRP2-10v10 (antibody, V domains shown)
VH: EVQLVQSGAEVKKPGATVKISCKVSGFNIKDYYVHWVQQAPGKGLEWMGRIDVEDDETKYAPKFQGRVTITADTSTDTAYMELSSLRSEDTAVYYCATPIYGAREAWFAYWGQGTLVTVSS
VL: DIQMTQSPSSLSASVGDRVTITCTASSSVSSSYLHWYQQKPGKAPKLLIYRTSNLASGVPSRFSGSGSGTDFTLTISSLQPEDFATYYCHQYYRSPPTFGGGTKVEIK
